The values below come from paper PMC5057103, “Crystal structure of a DNA aptamer bound to PvLDH elucidates novel single-stranded DNA structural elements for folding and recognition”.

Series [1] deals with PvLDH (Plasmodium vivax, UniProt Q4PRK9 1-316). Nature of the series: X-ray crystal structure. The conditions noted are these: protein: recombinant; tags: His-tag (pET28a, Histrap); chain copies: 2.
The target in series [2] is hLDH-B (Homo sapiens, UniProt P07195 2-334). Nature of the series: EMSA; with or without Mg2+ and EDTA; EMSA: 20 mM HEPES pH 8.0, 5% glycerol, 50 mM NaCl, 5 mM KCl, 5 mM MgCl2 (or none), 5 mM DTT, 10 pmol DNA + 200 pmol protein in 20 ul, 1 h room temperature, gel. The conditions noted are these: protein: commercial; chain copies: 4; hairpin with bulge; stem I T3-A34 to A6-T31, stem II G16-C30 to G20-C26, hairpin-bulge contact A22-T12, A21-T13. Background: Mobility shift assays separate free from complexed probe on a gel.
Chain of hLDH-B (P07195 2-334): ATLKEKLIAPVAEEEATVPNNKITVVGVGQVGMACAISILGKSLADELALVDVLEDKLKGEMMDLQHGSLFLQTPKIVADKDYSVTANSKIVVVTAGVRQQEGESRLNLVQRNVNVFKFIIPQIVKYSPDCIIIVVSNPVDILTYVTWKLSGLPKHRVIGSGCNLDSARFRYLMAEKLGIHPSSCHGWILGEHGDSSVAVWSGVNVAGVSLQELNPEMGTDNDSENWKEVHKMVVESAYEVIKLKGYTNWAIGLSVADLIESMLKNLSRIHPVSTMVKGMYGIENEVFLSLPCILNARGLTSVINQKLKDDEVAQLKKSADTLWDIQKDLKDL

For series [3], the target named is hLDH-A (Homo sapiens, UniProt P00338 2-332). Described as above.

As for GTTCGATTGGATTGTGCCGGAAGTGCTGGCTCGAAC (structured_DNA) [pL1], the binding result in series [1] was “binds”; in series [2], “no binding”; in series [3], “no binding”.
